From the supplement of paper PMC7877785
± gives the uncertainty stated by the source.

Test: self-splicing fitness, log relative to wild type (ln ratio); higher = more splicing; Tetrahymena group I intron in knt gene, E. coli kanamycin selection, DiMSum; sequences stand for … in CUCUCU…GGAGGGAAAAGUUAUCAGGCAUGCACCUGGUAGCUAGUCUUUAAACCAAUAGAUUGCAUCGGUUUAAAAGGCAAGACCGUCAAAUUGCGGGAAAGGGGUCAACAGCCGUUCAGUACCAAGUCUCAGGGGAAACUUUGAGAUGGCCUUGCAAAGGGUAUGGUAAUAAGCUGACGGACAUGGUCCUAACCACGCAGCCAAGUCCUAAGUCAACAGAUCUUCUGUUGAUAUGGAUGCAGUUCACAGACUAAAUGUCGGUCGGGGAAGAUGUAUUCUUCUCAUAAGAUAUAGUCGGACCUCUCCUUAAUGGGAGCUAGCGGAUGAAGUGAUGCAACACUGGAGCCGCUGGGAACUAAUUUGUAUGCGAAAGUAUAUUGAUUAGUUUUGGAGUACUCGUGGUCG
Outline: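 Pooled colonies went to amplicon sequencing on an Illumina HiSeq 2500 after six replicate transformations. The plates were LB agar with 100 μg/mL carbenicillin, 50 μM IPTG and 0.2% rhamnose, with or without 25 μg/mL kanamycin, incubated overnight at 37°C or 30°C. The E. coli BL21(DE3) library had all eight P1ex-region intron nucleotides randomised, the intron placed in the knt kanamycin-resistance gene on pET-22b(+). DiMSum fitness is the error-weighted combination of replicate fold changes, kanamycin against none, normalised to wild type.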

| Sequence | self-splicing fitness (ln) (30 °C) | self-splicing fitness (ln) (37 °C) |
| --- | --- | --- |
| GAGGAGCAAUAUUACGGGUG | -3.55 ± 0.27 | -1.95 ± 0.32 |
| GAGGAGCAAUAUUACGGUCC | -2.95 ± 0.16 | -0.994 ± 0.2 |
| GAGGAGCAAUAUUACGGUUU | -2.44 ± 0.13 | -2.28 ± 0.16 |
| GAGGAGCAAUAUUACGUACU | -2.16 ± 0.16 | -0.205 ± 0.19 |
| GAGGAGCAAUAUUACGUCAA | -2.72 ± 0.31 |  |
| GAGGAGCAAUAUUACGUUGA | -3.73 ± 0.42 | -2.24 ± 0.33 |
| GAGUAGCAAUAUUACGAAAG |  | -1.2 ± 0.3 |
| GAGUAGCAAUAUUACGACCU | 0.288 ± 0.14 | -1.02 ± 0.16 |
| GAGUAGCAAUAUUACGAGAC | -3.25 ± 0.43 | -2.95 ± 0.48 |
| GAGUAGCAAUAUUACGAGCG | -2.04 ± 0.075 | -0.489 ± 0.077 |
| GAGUAGCAAUAUUACGAGUU | -2.27 ± 0.095 | -0.98 ± 0.1 |
| GAGUAGCAAUAUUACGAUUG | -2.87 ± 0.25 | -2.14 ± 0.19 |
| GAGUAGCAAUAUUACGAUUU | -0.387 ± 0.086 | -0.312 ± 0.1 |
| GAGUAGCAAUAUUACGCAAA | -2.45 ± 0.44 | -1.63 ± 0.22 |
| GAGUAGCAAUAUUACGCCAA | -1.98 ± 0.43 | -1.66 ± 0.32 |
| GAGUAGCAAUAUUACGCGUA | -2.66 ± 0.33 | -0.648 ± 0.29 |
| GAGUAGCAAUAUUACGCUAA | -1.92 ± 0.15 | -1.97 ± 0.2 |
| GAGUAGCAAUAUUACGCUGG | -2.77 ± 0.29 | -1.48 ± 0.25 |
| GAGUAGCAAUAUUACGGGUA | -2.78 ± 0.35 | -2.54 ± 0.26 |
| GAGUAGCAAUAUUACGUACC | -1.54 ± 0.17 | -0.923 ± 0.27 |
| GAGUAGCAAUAUUACGUACG | -2.67 ± 0.18 | 0.056 ± 0.13 |
| GAGUAGCAAUAUUACGUCAG | -2.86 ± 0.17 | -2.24 ± 0.34 |
| GAGUAGCAAUAUUACGUUCA | -0.849 ± 0.075 | -0.31 ± 0.095 |
| GAGUAGCAAUAUUACGUUGA | -2.27 ± 0.27 | -2.76 ± 0.36 |
| GAUAAGCAAUAUUACGAAAU | -1.13 ± 0.13 | -1.11 ± 0.15 |

| Sequence | self-splicing fitness (ln) (30 °C) | self-splicing fitness (ln) (37 °C) |
| --- | --- | --- |
| GAUAAGCAAUAUUACGAACC | -0.954 ± 0.1 | -0.647 ± 0.13 |
| GAUAAGCAAUAUUACGAACU | -0.896 ± 0.079 | -0.073 ± 0.11 |
| GAUAAGCAAUAUUACGAAGG | -2.27 ± 0.15 | -1.86 ± 0.2 |
| GAUAAGCAAUAUUACGAAUU | -3.63 ± 0.26 | -2.76 ± 0.25 |
| GAUAAGCAAUAUUACGACUC | 0.0338 ± 0.1 | 0.785 ± 0.13 |
| GAUAAGCAAUAUUACGAGAU | -3.66 ± 0.21 | -2.14 ± 0.21 |
| GAUAAGCAAUAUUACGAGCU | -0.688 ± 0.11 | -1.13 ± 0.12 |
| GAUAAGCAAUAUUACGAGGA | -2.86 ± 0.29 | -2.12 ± 0.27 |
| GAUAAGCAAUAUUACGAUUG | -2.59 ± 0.11 | -1.82 ± 0.18 |
| GAUAAGCAAUAUUACGCAGG | -1.69 ± 0.13 | -2.95 ± 0.21 |
| GAUAAGCAAUAUUACGCAUC | -3.06 ± 0.23 | -1.21 ± 0.35 |
| GAUAAGCAAUAUUACGCCCA | -0.168 ± 0.13 | -0.865 ± 0.14 |
| GAUAAGCAAUAUUACGCGGG | -2.89 ± 0.11 | -2.34 ± 0.12 |
| GAUAAGCAAUAUUACGCGGU | -3.19 ± 0.25 | -1.01 ± 0.19 |
| GAUAAGCAAUAUUACGCUAG | -2.45 ± 0.15 | 0.0994 ± 0.13 |
| GAUAAGCAAUAUUACGCUUA | -3.59 ± 0.31 | -2.91 ± 0.23 |
| GAUAAGCAAUAUUACGGAAC | -3.85 ± 0.42 | -1.6 ± 0.18 |
| GAUAAGCAAUAUUACGGAAG | -3.56 ± 0.35 | -1.95 ± 0.23 |
| GAUAAGCAAUAUUACGGACC | -1.24 ± 0.25 | -1.4 ± 0.28 |
| GAUAAGCAAUAUUACGGACG | -1.08 ± 0.13 | -0.201 ± 0.14 |
| GAUAAGCAAUAUUACGGAUC | -1.37 ± 0.18 | -0.674 ± 0.25 |
| GAUAAGCAAUAUUACGGCGU | 0.319 ± 0.077 | 0.486 ± 0.1 |
| GAUAAGCAAUAUUACGGGCU | -1.95 ± 0.11 | -1.91 ± 0.16 |
| GAUAAGCAAUAUUACGGUCC |  | -3.48 ± 0.46 |
| GAUAAGCAAUAUUACGUAAA | -2.24 ± 0.17 | -1.19 ± 0.17 |

| Sequence | self-splicing fitness (ln) (30 °C) | self-splicing fitness (ln) (37 °C) |
| --- | --- | --- |
| GAUAAGCAAUAUUACGUCAU | -2.38 ± 0.086 | -1.62 ± 0.095 |
| GAUAAGCAAUAUUACGUCGG | -3.81 ± 0.35 | -3.35 ± 0.28 |
| GAUAAGCAAUAUUACGUGAU | -2.21 ± 0.12 | -0.957 ± 0.12 |
| GAUAAGCAAUAUUACGUUAG | -5.21 ± 0.45 | -2.27 ± 0.22 |
| GAUAAGCAAUAUUACGUUGA | -2.88 ± 0.14 | -1.79 ± 0.14 |
| GAUAAGCAAUAUUACGUUUA | -1.59 ± 0.12 | -0.982 ± 0.12 |
| GAUCAGCAAUAUUACGAAGU | -1.17 ± 0.12 | -0.265 ± 0.13 |
| GAUCAGCAAUAUUACGACAC | 0.702 ± 0.14 | 0.591 ± 0.17 |
| GAUCAGCAAUAUUACGACCC | -2.02 ± 0.2 | -1.65 ± 0.29 |
| GAUCAGCAAUAUUACGACCG | -1.01 ± 0.11 | -0.323 ± 0.14 |
| GAUCAGCAAUAUUACGACUU | 0.107 ± 0.092 | -0.119 ± 0.11 |
| GAUCAGCAAUAUUACGAGCA | -1.26 ± 0.1 | -0.318 ± 0.1 |
| GAUCAGCAAUAUUACGAUCC | -3.69 ± 0.37 | -2.18 ± 0.39 |
| GAUCAGCAAUAUUACGCCGA | -0.954 ± 0.12 | -0.727 ± 0.11 |
| GAUCAGCAAUAUUACGCGCC | -0.0847 ± 0.14 | -0.763 ± 0.17 |
| GAUCAGCAAUAUUACGCUUC | -3.16 ± 0.22 | -2.25 ± 0.43 |
| GAUCAGCAAUAUUACGGAGA | -2.08 ± 0.17 | -0.869 ± 0.14 |
| GAUCAGCAAUAUUACGGCGC | -0.52 ± 0.11 | 0.0329 ± 0.14 |
| GAUCAGCAAUAUUACGGGAA | -0.882 ± 0.13 | -1.04 ± 0.13 |
| GAUCAGCAAUAUUACGGUGU | -0.951 ± 0.072 | 0.335 ± 0.093 |
| GAUCAGCAAUAUUACGUACG | -1.5 ± 0.14 | -0.586 ± 0.14 |
| GAUCAGCAAUAUUACGUAGG | -1.87 ± 0.1 | -1.48 ± 0.14 |
| GAUCAGCAAUAUUACGUGAU | -3.23 ± 0.18 | -2.93 ± 0.22 |
| GAUCAGCAAUAUUACGUUAG | -2.05 ± 0.12 | -1.92 ± 0.17 |
| GAUCAGCAAUAUUACGUUGG | -3.67 ± 0.24 | -0.912 ± 0.12 |

| Sequence | self-splicing fitness (ln) (30 °C) | self-splicing fitness (ln) (37 °C) |
| --- | --- | --- |
| GAUGAGCAAUAUUACGAAUU | -3.84 ± 0.47 |  |
| GAUGAGCAAUAUUACGACUU | -0.252 ± 0.071 | 0.118 ± 0.089 |
| GAUGAGCAAUAUUACGAGAU |  | -3.21 ± 0.47 |
| GAUGAGCAAUAUUACGAGUC | -4.11 ± 0.33 | -2.21 ± 0.19 |
| GAUGAGCAAUAUUACGAUAU | -3.81 ± 0.21 | -2.58 ± 0.24 |
| GAUGAGCAAUAUUACGCCAG | -3.63 ± 0.22 | -3.07 ± 0.4 |
| GAUGAGCAAUAUUACGCGCU | -1.97 ± 0.23 | -1.88 ± 0.45 |
| GAUGAGCAAUAUUACGCUAU | -2 ± 0.38 |  |
| GAUGAGCAAUAUUACGCUCA | -1.18 ± 0.41 | -0.934 ± 0.42 |
| GAUGAGCAAUAUUACGGACC | -0.753 ± 0.19 | -0.541 ± 0.22 |
| GAUGAGCAAUAUUACGGAGG | -3.47 ± 0.26 | -3.23 ± 0.35 |
| GAUGAGCAAUAUUACGGCGG | -3.43 ± 0.3 | -1.88 ± 0.26 |
| GAUGAGCAAUAUUACGUACU | -1.85 ± 0.19 | -0.913 ± 0.26 |
| GAUGAGCAAUAUUACGUCCA | -2.12 ± 0.36 | -2.26 ± 0.32 |
| GAUGAGCAAUAUUACGUCUG | -2.66 ± 0.19 | -2.96 ± 0.28 |
| GAUGAGCAAUAUUACGUGCA | -1.14 ± 0.12 | -1.82 ± 0.15 |
| GAUGAGCAAUAUUACGUGCC | -2.92 ± 0.23 | -2.3 ± 0.42 |
| GAUUAGCAAUAUUACGAACC | -0.528 ± 0.24 | -0.802 ± 0.37 |
| GAUUAGCAAUAUUACGAAUA | -1.1 ± 0.29 | -0.71 ± 0.26 |
| GAUUAGCAAUAUUACGAGGC | -4.11 ± 0.46 | -1.02 ± 0.28 |
| GAUUAGCAAUAUUACGAUAC | -1.24 ± 0.19 | -0.415 ± 0.18 |
| GAUUAGCAAUAUUACGAUGU | -0.783 ± 0.074 | -0.611 ± 0.1 |
